Assays:
[1] = system: E. coli; assay: Heterologous expression of 8456_orf880 in E. coli with fatty acid feeding; type: cell-based
Protocol: ATCC 8456 cells were grown in 15 mL TSBYE medium (3% Tryptic Soy Broth+0.5% Yeast Extract). Fatty acids were added to the culture medium at final concentrations of 0.5 g/l (0.05%). After growth for 40-48 h at 30° C., cells from 5 mL of culture were pelleted, resuspended in 1 mL methanol, sonicated for 30 min, and extracted with 4 mL hexane. After solvent evaporation, samples were resuspended in 0.1 mL hexane and analyzed by GC-MS.
Jeotgalicoccus ATCC 8456 ORF880 was identified as one of the two major proteins in a highly purified enzyme fraction that catalyzed the conversion of free fatty acids to α-olefins. The genomic DNA encoding ATCC 8456_orf880 was cloned into pCDF-Duet1 under the control of the T7 promoter, and E. coli was transformed with various vectors, as described below. The E. coli cells were grown, and the hydrocarbons produced by the cells were analyzed as described in Example 2. When 0.05% stearic acid was fed to cultures of E. coli transformed with the 8456_orf880-containing vector, the expression of 8456_orf880 led to the formation of 1-heptadecene in E. coli (see FIG. 8, depicting GC/MS traces of α-olefins from E. coli either without (black) or with (gray) expression of 8456_orf880). […] Additionally, when E. coli cells expressing 8456_orf880 protein were fed with 0.05% palmitic acid or 0.05% eicosanoic acid, the production of 1-pentadecene or 1-nonadecene, respectively, was observed.

[2] = system: S. cerevisiae (BY4741) yeast cells; assay: α-Olefin production in Saccharomyces cerevisiae by heterologous expression of orf880; type: cell-based; details: expressed in S. cerevisiae
Protocol: Genomic DNA encoding Jeotgalicoccus sp. ATCC 8456_orf880 is cloned into the ApaI and XhoI sites of the yeast expression vector pESC-His. S. cerevisiae (BY4741) yeast cells are then transformed with either a plasmid containing orf880 or a plasmid not containing orf880. The transformed yeast cells are cultured under suitable conditions to allow expression of ORF880. The cells are pelleted and then lysed using YeastBuster™ (Novagen, Madison, Wis.). The α-olefins are extracted and analyzed as described in Examples 6 and 7.

[3] = Specific activity of α-olefin and α/β-hydroxy fatty acid formation by purified enzymes; type: biochemical; details: 500 μM H2O2, 200 μM potassium hexadecanoate
Protocol: The specific activity of α-olefin formation as well as α-(2) and β-(3)hydroxy fatty acid formation were determined for ORF880, CYP152A1, and CYP152A1 Q85H (see Examples 12 and 16). An E. coli BL21 strain (DE3) (Invitrogen) was transformed with either pET15b-orf 880, pET15b-cyp152A1, and pET15b-cyp152A1 Q85H using routine chemical transformation techniques. Protein expression was carried out by first inoculating a colony of the E. coli strain in 5 mL of LB media supplemented with 100 mg/L of carbenicillin and shaken overnight at 37° C. to produce a starter culture. This starter culture was used to inoculate 0.5 L of LB media supplemented with 100 mg/L of carbenicillin. The culture was shaken at 37° C. until an OD600 value of 0.6 was reached. The culture was placed on ice for 10 min before IPTG was added to a final concentration of 250 μM. The culture was shaken at 25° C. for approximately 18 h, and then centrifuged at 3,700 rpm for 20 min at 4° C. The pellet was then resuspended in 10 mL of buffer containing 100 mM sodium phosphate buffer at pH 7.2 supplemented with Bacterial ProteaseArrest (GBiosciences). The cells were then sonicated at 12 W on ice for 9 sec with 1.5 sec of sonication followed by 1.5 sec of rest. This procedure was repeated 5 times with one min intervals between each sonication cycle. The cell free extract was centrifuged at 10,000 rpm for 30 min at 4° C. 5 mL of Ni-NTA (Qiagen) was added to the supernatant, and the mixture was gently stirred at 4° C. The slurry was passed over a column removing the resin from the lysate. The resin was then washed with 30 mL of buffer containing 100 mM sodium phosphate buffer at pH 7.2 plus 30 mM imidazole. Finally, the protein was eluted with 15 mL of 100 mM sodium phosphate buffer at pH 7.2 plus 250 mM imidazole. The protein solution was dialyzed with 200 volumes of 100 mM sodium phosphate buffer at pH 7.2 with 20% glycerol. Protein concentration was determined using the Bradford assay (Biorad). 578 μg/mL of ORF880, 865 μg/mL of CYP152A1, and 653 μg/mL of CYP152A1 Q85H protein was obtained.
To determine the specific activity with potassium hexadecanoate, the following reactions were set-up where each time point consisted of 500 μL. Each reaction contained of 500 μM H2O2, 200 μM of potassium hexadecanoate, 100 mM sodium phosphate buffer at pH 7.2, and protein at the following concentrations: ORF880-0.23 or 0.46 μM; CYP152A1-8.65, 17.3, or 34.6 μM; CYP152A1 Q85H-6.53, 13.06, or 26.12 μM. The reactions were carried out at room temperature and time points were taken at 0, 1, 3, 5, 7, 10, 14, and 20 minutes. Reactions were quenched with 50 μL of 12 M HCl and then extracted with 200 μL of ethyl acetate. 50 μL of this extract was then reacted with 50 μL N,O-Bis(trimethylsilyl)trifluoroacetamide with trimethyl-chlorosilane (Aldrich). Samples were analyzed using GC/MS using the following parameters: run time: 20 min; column: HP-5-MS Part No. 190915-433E (length of 30 meters; I.D.: 0.25 mm narrowbore; film: 0.25 μM); inject: 1 μL Agilent 6850 inlet; inlet: 300° C. splitless; carrier gas: helium; flow: 1.3 mL/min; oven temp: 100° C. hold 5 min, 320° C. at 20° C./min, 320° C. hold 5 min; det: Agilent 5975B VL MSD; det. temp: 300° C.; scan: 50-500 M/Z. Calibration curves were generated using 1-pentadecene, α(2)-hydroxyhexadecanoic acid, and β(3)-hydroxyhexadecanoic acid dissolved in ethyl acetate and derivatized as described herein.
Based upon this analysis, product formation was determined to be linear within the first three minutes. The specific activities for each enzyme concentration in the linear range were averaged for a given reaction (e.g., decarboxylation, α-hydroxylation, or β-hydroxylation). FIG. 21 summarizes the results. The specific activity for 1-pentadecene formation was similar for ORF880 and CYP152A1. Mutating the glutamine 85 residue to a histidine increased the specific activity of 1-pentadecene formation (i.e., increased fatty acid decarboxylase activity). […]

B1: ORF880: olefin-producing enzyme (fatty acid decarboxylase) from Jeotgalicoccus sp. ATCC 8456, SEQ ID NO:2 (protein)
chain: MATLKRDKGLDNTLKVLKQGYLYTTNQRNRLNTSVFQTKALGGKPFVVVTGKEGAEMFYNNDVVQREGMLPKRIVNTLFGKGAIHTVDGKKHVDRKALFMSLMTEGNLNYVRELTRTLWHANTQRMESMDEVNIYRESIVLLTKVGTRWAGVQAPPEDIERIATDMDIMIDSFRALGGAFKGYKASKEARRRVEDWLEEQIIETRKGNIHPPEGTALYEFAHWEDYLGNPMDSRTCAIDLMNTFRPLIAINRFVSFGLHAMNENPITREKIKSEPDYAYKFAQEVRRYYPFVPFLPGKAKVDIDFQGVTIPAGVGLALDVYGTTHDESLWDDPNEFRPERFETWDGSPFDLIPQGGGDYWTNHRCAGEWITVIIMEETMKYFAEKITYDVPEQDLEVDLNSIPGYVKSGFVIKNVREVVDRT
modifications: Jeotgalicoccus sp. ATCC8456
[1]; 0.05% eicosanoic acid fed
  α-olefin produced: 1-nonadecene
[1]; 0.05% palmitic acid fed
  α-olefin produced: 1-pentadecene
[1]; 0.05% stearic acid fed
  α-olefin produced: 1-heptadecene
[2]
  α-olefin production: produces α-olefins
[3]
  rate of hydroxyhexadecanoic acid production relative to the rates of the two CYP152A1 enzymes: about 1/50
[3]; pH 7.2, room temperature, comparison between enzymes
  specific activity for 1-pentadecene formation: similar
